Laboratory results taken from patent US5814612A, “Retinol derivatives and uses thereof” (priority 1992, dated 1998).
Entries after “also recorded” stand apart in the source; their conditions may differ.

B1: IL-4: murine rIL-4 (protein, UniProt P07750 21-140, looked up)
Interleukin-4: HIHGCDKNHLREIIGILNEVTGEGTPCTEMDVPNVLTATKNTTESELVCRASKVLRIFYLKHGKTPCLKKNSSVLMELQRLFRAFRCLDSSISCTMNESKSTSLKDFLESLKSIMQMDYS
B2: IFN-gamma: mouse recombinant IFN-gamma (protein, UniProt P01580 23-155, looked up)
Interferon gamma: HGTVIESLESLNNYFNSSGIDVEEKSLFLDIWRNWQKDGDMKILQSQIISFYLRLFEVLKDNQAISNNISVIESHLITTFFSNSKAKKDAFMSIAKFEVNNPQVQRQAFNELIRVVHQLLPESSLRKRKRSRC
B3: IL-1: Human recombinant IL-1-α (protein, UniProt P01583 113-271, looked up)
Interleukin-1 alpha: SAPFSFLSNVKYNFMRIIKYEFILNDALNQSIIRANDQYLTAAALHNLDEAVKFDMGAYKSSKDDAKITVILRISKTQLYVTAQDEDQPVLLKEMPEIPKTITGSETNLLFFWETHGTKNYFTSVAHPNLFIATKQDYWVCLAGGPPSITDFQILENQA

Key:
[1] = tested on: 5/2 cells; format: in vitro ADME, human
Procedure: 5/2 cells (10^6 cells in 10 ml HB 101 medium) were incubated with all-trans-[^3 H] retinol (10 uCe/ml). After 24 hours, retinoids were extracted from the washed cell pellet and unlabeled marker retinoids were added. The crude extract was loaded on an analytical reversed-phase C-18 column. Retinoids were eluted with the shown linear gradient of water/methanol/chloroform. The flow rate was 0.5 ml/min. DPM were determined with an on line scintillation counter. Reference retinoids were the all-trans forms of 0: 3,4-didehydroretinoic acid, 1: all-trans-retinoic acid, 2: 3,4-didehydroretinol, 3: retinol, 4: retinyl linoleate, 5: retinyl oleate, 6: retinyl palmitate. Shaded area corresponds to P3. Cross-hatched area corresponds to P1.
Lymphoblastoid 5/2 cells grown in the presence of 10^-6 M retinol were spiked with ^3 H-labeled retinol. After 16 hours the cell pellet was delipidated according to the method of McLean et al. and separated on a reversed phase C-18 HPLC column (FIG. 7). […] Three peaks, P1, P2 and P3, could not be immediately identified. One peak eluting at 36-39 minutes (corresponding 83% methanol 7% water) provisionally called P3, but now known as 14HRR, was unusual because unlike P1 eluting at 31-34 minutes, its relative amount increased when the retinol concentration was lowered or when retinol was given to the cells bound to RBP. […] Since HeLa cells contain 14HRR, these cells were also used. 50 ml of packed HeLa cells (10^10 cells) yielded 25 OD348nmunits of pure P3 after the following sequence of steps: 1. Growth in the presence of 10^-5 M retinol; 2. Extraction of cell pellet according to McClean et al. (13); 3. Preparative C-18 HPLC column eluted with a water/methanol gradient; 4. semipreparative C18 HPLC column eluted with a water/acetonitrile gradient; 5. analytical C4 column eluted with a water/methanol gradient.

[2] = tested on: T cells; experiment: T cell activation and proliferation, retinol cofactor requirement; format: cell-based, murine
Procedure: They were seeded into 96-well flat-bottom plates at varying cellular densities in a final volume of 100 μl. In control experiments, cells were cultured in medium containing 10% FCS or 3% human serum and 5×10^-5 M 2ME. […] Cultures were carried out in duplicate. Plates were incubated at 37° C. in a humidified 5% CO2 atmosphere. Cellular proliferation was determined by [^3 H] thymidine uptake (0.5 uCi/well; New England Nuclear, Boston, Mass.) after the incubation times indicated for each experiment with a 4 hour labeling pulse. Cells were harvested onto glass filter and [^3 H]TdR incorporation was determined by liquid scintillation counting. The data presented are the means of duplicate or six replicate cultures. The restriction to duplicate measurements was necessary to conserve scarce 14HRR. […] Each experiment was repeated at least twice.

[3] = tested on: thymocytes; experiment: Proliferation of anti-CD3 activated thymocytes in serum-free ITLB medium; format: cell-based, BALB/c mouse; conditions: for ability of cytokine to replace retinol: absence of retinol; for growth-stimulating effect, anti-CD3, no Retinol / growth-stimulating effect, anti-CD3, 10^-6 M Retinol: 3 days, IL-1 10, IL-2 2, IL-4 5, IL-6 5, IFN-gamma 40, TNF-alpha 12, IL-2 + IL-4 2/5 U/ml; for growth-stimulating effect, anti-CD3, 10^-6 M Retinol: with 10^-6 M retinol (head), Retinol: stimulating agent none
Procedure: FIG. 14A: Purified BALB/c thymocytes were activated with immobilized anti-CD3e antibody and cultivated for four days in ITLB medium with or without retinol (3×10^-6 M), 14HRR (6×10^-7 M) (fresh 14HRR was added every 12 hours), human serum (3%) or FCS (10%) at the cellular densities shown. Proliferation was assayed by tritiated thymidine incorporation into cellular DNA.
FIG. 14B: BALB/c thymocytes (10^6 /ml) were added to microtiter plates coated with titrated amounts of anti-CD3e antibody with […] retinol or without, as indicated. Proliferation was measured in hexaduplicate wells on day 3 by ^3 H thymidine incorporation assay.
Purified thymocytes (5×10^5 cells/well) were stimulated by TCR crosslinking with immobilized anti-CD3e antibody (FIG. 15A) or 0.4 μg/ml Con A (FIG. 15B) in serum-free ITLB medium. The indicated amounts of retinoids were added either once at the beginning of the experiment (marked as "1×") or every 12 hours thereafter (marked as "6×"). DNA synthesis was measured after 72 hours by tritiated thymidine uptake as described.
Purified thymocytes (10^5 cells/well) were activated with anti-CD3 antibody in ITLB medium with or without retinol (3×10^-6 M), 14HRR (6×10^-7, added every 12 hours or human serum (3%)). DNA synthesis was measured daily by a 4 hour pulse of tritiated thymidine.
Thymocytes (5×10^4 /well) were activated by immobilized anti-CD3 mAb in medium ITLB. Retinol (2×10^-6 M) was added at initiation of culture, or delayed by 12 hours and 24 hours, respectively, or omitted altogether. ^3 H thymidine pulses of 4 hours were used to measure DNA synthesis of hexaduplicate wells.
Thymuses of 3 to 6-week-old BALB/c mice were teased in serum-free RPMI medium supplemented with 1% BSA, 10^-6 M linoleic acid and antibiotics. Depletion of accessory cells was achieved by two cycles of complement-dependent lysis with a mixture of anti-IA^d (5 μg/ml) and anti-IE^d (1:500 diluted ascites fluid). Briefly, cells were incubated on ice for 30 minutes with Ia antibodies, spun down, resuspended in 1:40 diluted rabbit complement, and incubated at 37° C. for 45 minutes. Incubations and two subsequent washes were carried out with RPMI medium containing 1% BSA. Cell viability was evaluated by trypan blue dye exclusion. To determine the extent of depletion of accessory cells, samples were stained with FITC-conjugated anti-Fc receptor antibody and analyzed by flow cytometry on a FACScan instrument (Becton Dickinson).
Cells were cultured in serum-free medium, referred to as ITLB, containing RPMI 1640 supplemented with 8×10^-7 M insulin (5 μg/ml), 7×10^-8 M transferrin (5 μg/ml), 2×10^-6 M linoleic acid, 2×10^-6 M delipidated BSA (0.12 mg/ml), 2 mM L-glutamine, 1 mM sodium pyruvate and antibiotics. They were seeded into 96-well flat-bottom plates at varying cellular densities in a final volume of 100 μl. In control experiments, cells were cultured in medium containing 10% FCS or 3% human serum and 5×10^-5 M 2ME. T cells and thymocytes were activated with immobilized, purified anti-mAb CD3e or by the addition of Con A in the presence or absence of different concentrations of retinoids. Unless indicated otherwise, retinoids were replenished every 12 hours to maintain a reasonably constant concentration of these labile compounds in culture. […] Cultures were carried out in duplicate. Plates were incubated at 37° C. in a humidified 5% CO2 atmosphere. Cellular proliferation was determined by [^3 H] thymidine uptake (0.5 uCi/well; New England Nuclear, Boston, Mass.) after the incubation times indicated for each experiment with a 4 hour labeling pulse.

| Molecule | ability to substitute for retinol in T cell activation (words) [2] | ability of cytokine to replace retinol [3] | growth-stimulating effect, anti-CD3, no Retinol [3] | growth-stimulating effect, anti-CD3, 10^-6 M Retinol [3] | other results |
| --- | --- | --- | --- | --- | --- |
| CC1=C(/C=C/C(C)=C/C=C/C(C)=C/C(=O)O)C(C)(C)CC=C1 [3,4-didehydroretinol acid, 3,4-didehydroretinoic acid] |  |  |  |  | detection as metabolite of retinol [1]: not detectable |
| CC1=C(/C=C/C(C)=C/C=C/C(C)=C/CO)C(C)(C)CC=C1 [3,4-didehydroretinol] |  |  |  |  | detection as metabolite of retinol [1]: not detectable |
| CC1=C(/C=C/C(C)=C/C=C/C(C)=C\CO)C(C)(C)CCC1 [13-cis-retinol] | can substitute for retinal |  |  |  | effectiveness relative to retinol ([3]; anti-CD3, 14HRR at 12 hour intervals): equally effective as all-trans retinol |
| IL-6: hrIL-6 |  | None of the four interleukins, IL-1, IL-2, IL-4 or IL-6, was capable of overcoming the requirement for retinal; also recorded: none of the interleukins tested (IL-1, IL-2, IL-4 and IL-6) nor TNF-alpha are substitutes for retinol | 1,005 ± 815 CPM | 130,590 ± 25,803 CPM |  |
| TNF-alpha | cannot be satisfied by retinoic acid or interleukins 1, 2, 4 and 6, and TNF-alpha | none of the interleukins tested (IL-1, IL-2, IL-4 and IL-6) nor TNF-alpha are substitutes for retinol | 464 ± 95 CPM | 122,905 ± 11,577 CPM | ability of cytokine to replace retinol ([3]; listed as TNF-α): does not |
| B1 |  | None of the four interleukins, IL-1, IL-2, IL-4 or IL-6, was capable of overcoming the requirement for retinal; also recorded: none of the interleukins tested (IL-1, IL-2, IL-4 and IL-6) nor TNF-alpha are substitutes for retinol | 991 ± 105 CPM | 115,849 ± 20,630 CPM |  |
| B2 | can substitute for retinol | can circumvent the retinol requirement and initiate durable proliferation in the absence of retinol or 14HRR | 81,876 ± 11,868 CPM | 220,359 ± 27,726 CPM | ability of cytokine to replace retinol ([3]; listed as interferon-gamma): can sustain thymocyte proliferation in the absence of retinol; also recorded: quite efficient in anti-CD3-mediated activation in the absence of retinol; effect of cytokine combined with retinol [3]: strong additive effects; effect of cytokine combined with retinol ([3]; listed as Interferon-gamma): clear additive effect with retinol |
| B3 |  | None of the four interleukins, IL-1, IL-2, IL-4 or IL-6, was capable of overcoming the requirement for retinal; also recorded: none of the interleukins tested (IL-1, IL-2, IL-4 and IL-6) nor TNF-alpha are substitutes for retinol | 959 ± 30 CPM | 118,924 ± 3,051 CPM |  |
